Ends that are not written are not given here.
T1: PfCSP minor repeat region peptide, biotinylated (NVDPNANPNVDPNANPNVDP) (Plasmodium falciparum, biotinylated (end not stated))
T1 peptide: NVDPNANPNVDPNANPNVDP

T2: PfCSP N-terminal junctional region peptide, biotinylated (KQPADGNPDPNANPNV) (Plasmodium falciparum, also: biotin label, end not given here)
T2 peptide: KQPADGNPDPNANPNV

T3: PfCSP junctional region peptide, biotinylated (NPDPNANPNVDPNANP) (Plasmodium falciparum, also: biotin label, end not given here)
T3 peptide: NPDPNANPNVDPNANP

T4: PfCSP major repeat region peptide NPNA3, biotinylated (Plasmodium falciparum, also: biotin label, end not given here)
T4 peptide: NPNANPNANPNA

T5: PfCSP N-terminal junctional region peptide, biotinylated (KQPADGNPDPNANPNV) (Plasmodium falciparum 3D7, also: biotinylated, end not given here)
T5 construct: Plasmodium falciparum circumsporozoite protein (PfCSP), N-terminal junctional region; source: synthetic peptide, bought: Innopep Inc
T5 chain: KQPADGNPDPNANPNV

T6: PfCSP junctional region peptide, biotinylated (NPDPNANPNVDPNANP) (Plasmodium falciparum 3D7, also: biotinylated, end not given here)
T6 construct: Plasmodium falciparum circumsporozoite protein (PfCSP), junctional region; source: synthetic peptide, bought: Innopep Inc
T6 chain: NPDPNANPNVDPNANP


Assays:
[1] = target: T1, PfCSP minor repeat region peptide, …; test: BLI
[2] = target: T2, PfCSP N-terminal junctional region …; test: BLI
[3] = target: T3, PfCSP junctional region peptide, …; test: BLI
[4] = target: T4, PfCSP major repeat region peptide …; test: BLI
[5] = target: T5, PfCSP N-terminal junctional region …; test: BLI; biotinylated peptides (10 ug/mL) loaded on streptavidin biosensors; Fabs in solution at 200, 100, 50, 25, 12.5 nM; kinetics buffer 1X PBS, 0.01% BSA, 0.002% Tween 20; 300 s association, 300 s dissociation; Octet Red; 1:1 global fit; conditions: both partners purified
[6] = target: T6, PfCSP junctional region peptide, …; test: as above; conditions: both partners purified

Row | Binder | Kd [1] [nM] | Kd [2] [nM] | Kd [3] [nM] | Kd [4] [nM] | binding result [5] | Kd [6] [nM]
1 | Fab MS-1805 (engineered AB007088) (Fab, V domains shown) VH: QVQLVESGGGVVQPGRSLRLSCAASGFTFNTYGMHWVRQAPGKGLEWVAIIWYDGSQKYYADSVQGRFTISRDNHKNTLYLQMNSLRAEDTAVYFCVRVRFSVGPHGSAFDLWGQGTMVTVSS VL: GVQMTQSPSTLSASVGDRVTLTCRASQSISSWLAWYQQKPGKAPKLLIYDASSLESGVPSRFSGSGSGTEFTLTISSLQPDDFATYYCQQYNSYSFWTFGQGTKVEIK | 28 | 23 | 20 | 25 | – | –
2 | Fab 7088 (antigen-binding fragment of mAb AB007088) (Fab, V domains shown) VH: QVQLVESGGGVVQPGRSLRLSCAASGFAFNTYGMHWVRQTPGKGLEWVAIIWYDGSQKYYADSVQGRFIISRDNHKNTLSLQMNGLRAEDTAVYFCVRVRFSVGPHGSAFDLWGQGTMVIVSS VL: GVQMTQSPSTLSASVGDRVTLTCRASQSISSWLAWYQQKPGKAPKLLIYDASSLESGVPSRFSGSGSGTEFTLTISSLQPDDFATYYCQQYNSYSFWTFGQGTKVEIK | 20 | 15 | 16 | 15 | – | –
3 | Fab 224 (antigen-binding fragment of mAb AB000224) (Fab, V domains shown, Fab 224 heavy chain (IGHV3-49) is in PDB 6WFY (cited) and PDB 9NOB (apo, deposited here); Fab 224 light chain (IGLV1-40) is in PDB 6WFY (cited) and PDB 9NOB (apo, deposited here); IGHV3-49/IGLV1-40; the expression methods name only the Fab genes of MAM01, 7088 and MS-1805, not Fab 224) VH: EVQLVESGGGLVQPGRSLRLPCTASGFSFGDHAMSWVRQAPGKGLEWVGFIRKTTYGATTHYAAAVRGRFTISRDDSKSIVYLQMNSLKTEDTAVYFCTRVQLDYGPGYQYYGMDVWGQGTTVTVSS VL: ESVLTQPPSVSGAPGQRVTISCTGMNSNIGAGYDVYWYQQLPGRAPKLLIYGNSNRPSGVPDRFSGSRSGTSASLAITGLQAEDEADYYCQSYDTSLNGWAFGGGTKLTVL | 2.9 | – | 72 | 3.5 | no binding (tested: 200 nM) | –
4 | Fab MAM01 (engineered AB000224) (Fab, V domains shown, as the heavy chain of m1 (Fab 224, PDB 6WFY) with the stated framework changes (Kabat numbering); as the light chain of m1 (Fab 224, PDB 6WFY) with the stated changes (Kabat numbering); Fab only; the LS mutations of the Fc are not part of it; also called MS-1797; MAM01 Fab; source: ExpiCHO cells, purified (HiTrap Protein G HP, size exclusion chromatography)) VH: EVQLVESGGGLVQPGRSLRLSCTASGFSFGDHAMSWVRQAPGKGLEWVGFIRKTTYGATTHYAAAVRGRFTISRDDSKSTVYLQMNSLKAEDTAVYFCARVQLDYGPGYQYYGMDVWGQGTTVTVSS VL: QSVLTQPPSVSGAPGQRVTISCTGMNSNIGAGYDVYWYQQLPGTAPKLLIYGNSNRPSGVPDRFSGSRSGTSASLAITGLQAEDEADYYCQSYDTSLNGWAFGGGTKLTVL | 3.5 | – | – | 4.1 | no binding (tested: 200 nM) | 108

Reference: publication doi:10.1101/2025.08.24.672003, “Structural characterization of MAM01 and other cost-effective engineered monoclonal antibodies for malaria prevention” (bioRxiv, 2025)
